Results as given in paper PMC6149950, “Designability of Aromatic Interaction Networks at E. coli Bacterioferritin B-Type Channels” (Molecules : A Journal of Synthetic Chemistry and Natural …, 2017).

B1: bacterioferritin from E. coli (BFR) mutant N34W (natural protein)
chain: not shown
notes: bacterioferritin (BFR), E. coli, with N34W; made by site-directed mutagenesis of wild-type BFR in pET32 Ek/LIC
B2: bacterioferritin from E. coli (BFR) double mutant D132W/N34W (natural protein)
chain: not shown
notes: bacterioferritin (BFR), E. coli, with D132W and N34W; made by site-directed mutagenesis of wild-type BFR in pET32 Ek/LIC

Target: the molecule itself
Assay: SEC; Superdex 200 10/300 GL, 50 mM NaH2PO4, 150 mM NaCl, pH 7.0, 4 °C, 0.5 mL/min; column calibrated with six standard proteins; self-assembly of dimers into the 24-mer cage

Protein | stoichiometry N
B1 | 2
B2 | 2
